According to paper PMC10397247:
Blank lines part the entries; values can stand above or below the binder they belong to.

What was measured:
[1] = molecular target: T1, P7A-bA; test: two-hybrid library CCNG1;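 further: natural log of median RNA to DNA barcode read ratio; higher means stronger binding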
T1 chain: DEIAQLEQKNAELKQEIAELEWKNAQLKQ

[2] = molecular target: T2, P8A-bA; test: two-hybrid library CCNG1;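 further: natural log of median RNA to DNA barcode read ratio; higher means stronger binding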
T2 chain: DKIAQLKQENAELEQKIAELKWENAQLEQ

[3] = molecular target: T3, P9A-bA; test: two-hybrid library CCNG1;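 further: natural log of median RNA to DNA barcode read ratio; higher means stronger binding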
T3 chain: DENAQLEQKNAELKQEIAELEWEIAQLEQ

[4] = molecular target: T4, P4A-bA; test: two-hybrid library CCNG1;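 further: natural log of median RNA to DNA barcode read ratio; higher means stronger binding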
T4 chain: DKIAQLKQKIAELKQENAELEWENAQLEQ

[5] = molecular target: T5, P6A-bA; test: two-hybrid library CCNG1
T5 chain: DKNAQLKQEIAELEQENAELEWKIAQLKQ

[6] = molecular target: T6, P5A-bA; test: two-hybrid library CCNG1
T6 chain: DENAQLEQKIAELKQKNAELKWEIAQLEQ

[7] = molecular target: T7, 4H568-bA; test: two-hybrid library CCNG1
T7 chain: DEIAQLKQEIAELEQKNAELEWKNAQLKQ

[8] = molecular target: T8, 4H3354-bA; test: two-hybrid library CCNG1
T8 chain: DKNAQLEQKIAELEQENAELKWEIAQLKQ

[9] = molecular target: T9, 4H3112-bA; test: two-hybrid library CCNG1
T9 chain: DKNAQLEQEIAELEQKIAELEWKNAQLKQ

[10] = molecular target: T10, 4H331-bA; test: two-hybrid library CCNG1
T10 chain: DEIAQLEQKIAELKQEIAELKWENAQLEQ

[11] = molecular target: T11, 4H3782-bA; test: two-hybrid library CCNG1
T11 chain: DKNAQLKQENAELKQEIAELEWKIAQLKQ

[12] = molecular target: T12, 4H953-bA; test: two-hybrid library CCNG1
T12 chain: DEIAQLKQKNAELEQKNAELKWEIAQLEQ

[13] = molecular target: T13, 4H2729-bA; test: two-hybrid library CCNG1
T13 chain: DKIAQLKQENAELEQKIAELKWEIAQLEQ

[14] = molecular target: T14, 4H607-bA; test: two-hybrid library CCNG1
T14 chain: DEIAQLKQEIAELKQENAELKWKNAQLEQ

[15] = molecular target: T15, 4H2667-bA; test: two-hybrid library CCNG1
T15 chain: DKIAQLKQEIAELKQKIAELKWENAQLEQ

[16] = molecular target: T16, 4H2618-bA; test: two-hybrid library CCNG1
T16 chain: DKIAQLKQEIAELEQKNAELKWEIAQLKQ

[17] = molecular target: T17, 4H338-bA; test: two-hybrid library CCNG1
T17 chain: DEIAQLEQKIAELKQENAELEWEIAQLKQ

[18] = molecular target: T18, 4H454-bA; test: two-hybrid library CCNG1
T18 chain: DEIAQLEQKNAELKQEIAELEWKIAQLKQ

[19] = molecular target: T19, 4H883-bA; test: two-hybrid library CCNG1
T19 chain: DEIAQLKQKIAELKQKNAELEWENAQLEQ

[20] = molecular target: T20, 4H3427-bA; test: two-hybrid library CCNG1
T20 chain: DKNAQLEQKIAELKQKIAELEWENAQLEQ

[21] = molecular target: T21, 4H918-bA; test: two-hybrid library CCNG1
T21 chain: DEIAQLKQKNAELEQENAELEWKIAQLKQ

[22] = molecular target: T22, 4H687-bA; test: two-hybrid library CCNG1
T22 chain: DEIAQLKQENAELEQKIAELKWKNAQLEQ

[23] = molecular target: T23, 4H3189-bA; test: two-hybrid library CCNG1
T23 chain: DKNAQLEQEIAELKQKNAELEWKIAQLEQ

[24] = molecular target: T24, 4H3185-bA; test: two-hybrid library CCNG1
T24 chain: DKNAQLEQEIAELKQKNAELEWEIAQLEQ

[25] = molecular target: T25, 4H797-bA; test: two-hybrid library CCNG1
T25 chain: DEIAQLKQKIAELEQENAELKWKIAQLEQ

[26] = molecular target: T26, 4H754-bA; test: two-hybrid library CCNG1
T26 chain: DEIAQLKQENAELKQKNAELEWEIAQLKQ

[27] = molecular target: T27, 4H967-bA; test: two-hybrid library CCNG1
T27 chain: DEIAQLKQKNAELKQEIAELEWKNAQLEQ

[28] = molecular target: T28, 4H3855-bA; test: two-hybrid library CCNG1
T28 chain: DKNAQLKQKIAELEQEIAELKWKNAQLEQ

[29] = molecular target: T29, 4H908-bA; test: two-hybrid library CCNG1
T29 chain: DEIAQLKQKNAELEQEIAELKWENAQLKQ

[30] = molecular target: T30, 4H72-bA; test: two-hybrid library CCNG1
T30 chain: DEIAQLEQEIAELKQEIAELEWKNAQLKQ

[31] = molecular target: T31, 4H4001-bA; test: two-hybrid library CCNG1
T31 chain: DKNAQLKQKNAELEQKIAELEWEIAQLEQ

[32] = molecular target: T32, 4H717-bA; test: two-hybrid library CCNG1
T32 chain: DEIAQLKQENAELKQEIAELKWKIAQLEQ

[33] = molecular target: T33, 4H3651-AA; test: two-hybrid library CCmax; conditions: mean of both orientations
T33 chain: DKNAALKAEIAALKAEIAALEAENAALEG

[34] = molecular target: 4H_GCN4; test: two-hybrid library CCmax
Sequence of 4H_GCN4 (chain, as listed by the source): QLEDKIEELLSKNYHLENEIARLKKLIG

[35] = molecular target: T34, 4H3020-AA; test: two-hybrid library CCmax; conditions: mean of both orientations
T34 chain: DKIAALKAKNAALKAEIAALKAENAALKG

[36] = molecular target: T35, 4H58-AA; test: two-hybrid library CCmax; conditions: mean of both orientations
T35 chain: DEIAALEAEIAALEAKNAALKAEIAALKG

[37] = molecular target: T36, 4H_BCR; test: two-hybrid library CCmax; conditions: mean of both orientations
T36 chain: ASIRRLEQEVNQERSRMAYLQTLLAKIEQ

[38] = molecular target: GCN2_T; test: two-hybrid library CCmax; conditions: mean of both orientations
[39] = molecular target: T37, 4H2721-AA; test: two-hybrid library CCmax
T37 chain: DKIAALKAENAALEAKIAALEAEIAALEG

[40] = molecular target: T38, 4H3782-AA; test: two-hybrid library CCmax; conditions: mean of both orientations
T38 chain: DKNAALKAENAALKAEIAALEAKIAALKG

[41] = molecular target: T39, 4H3705-AA; test: two-hybrid library CCmax; conditions: mean of both orientations
T39 chain: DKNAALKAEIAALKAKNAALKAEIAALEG

[42] = molecular target: T40, 4H895-AA; test: two-hybrid library CCmax; conditions: mean of both orientations
T40 chain: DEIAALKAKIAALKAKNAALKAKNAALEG

[43] = molecular target: T41, 4H465-AA; test: two-hybrid library CCmax; conditions: mean of both orientations
T41 chain: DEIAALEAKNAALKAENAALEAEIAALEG

[44] = molecular target: T42, 4H_APH; test: two-hybrid library CCmax; conditions: mean of both orientations
T42 chain: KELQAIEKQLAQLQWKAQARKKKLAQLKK

[45] = molecular target: T43, 4H535-AA; test: two-hybrid library CCmax; conditions: mean of both orientations
T43 chain: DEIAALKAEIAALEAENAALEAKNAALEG

[46] = molecular target: T44, 4H355-AA; test: two-hybrid library CCmax; conditions: mean of both orientations
T44 chain: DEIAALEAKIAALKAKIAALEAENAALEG

[47] = molecular target: T45, 4H2750-AA; test: two-hybrid library CCmax; conditions: mean of both orientations
T45 chain: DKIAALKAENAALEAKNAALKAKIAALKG

[48] = molecular target: T46, 4H2898-AA; test: two-hybrid library CCmax; conditions: mean of both orientations
T46 chain: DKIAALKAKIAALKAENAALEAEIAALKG

[49] = molecular target: T47, 4H486-AA; test: two-hybrid library CCmax; conditions: mean of both orientations
T47 chain: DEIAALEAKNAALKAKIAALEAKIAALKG

[50] = molecular target: T48, 4H3365-AA; test: two-hybrid library CCmax; conditions: mean of both orientations
T48 chain: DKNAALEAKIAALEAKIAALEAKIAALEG

[51] = molecular target: T49, 4H3606-bA; test: two-hybrid library CCNG1
T49 chain: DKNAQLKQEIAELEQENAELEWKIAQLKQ

[52] = molecular target: T50, 4H2717-bA; test: two-hybrid library CCNG1
T50 chain: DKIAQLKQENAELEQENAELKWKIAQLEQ

[53] = molecular target: T51, 4H2697-bA; test: two-hybrid library CCNG1
T51 chain: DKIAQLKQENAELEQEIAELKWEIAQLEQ

[54] = molecular target: T52, 4H370-bA; test: two-hybrid library CCNG1
T52 chain: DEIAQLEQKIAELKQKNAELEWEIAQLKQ

[55] = molecular target: T53, 4H2576-bA; test: two-hybrid library CCNG1
T53 chain: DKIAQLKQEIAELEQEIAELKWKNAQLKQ

[56] = molecular target: T54, 4H3843-bA; test: two-hybrid library CCNG1
T54 chain: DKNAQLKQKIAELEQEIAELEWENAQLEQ

[57] = molecular target: T55, 4H2610-bA; test: two-hybrid library CCNG1
T55 chain: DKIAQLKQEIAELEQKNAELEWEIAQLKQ

[58] = molecular target: T56, 4H3057-bA; test: two-hybrid library CCNG1
T56 chain: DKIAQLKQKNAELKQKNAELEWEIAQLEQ

[59] = molecular target: T57, 4H2760-bN; test: two-hybrid library CCNG1
T57 chain: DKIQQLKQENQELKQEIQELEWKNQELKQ

[60] = molecular target: T58, 4H462-bA; test: two-hybrid library CCNG1
T58 chain: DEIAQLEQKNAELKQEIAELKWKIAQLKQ

B3: 4H2721-AA (peptide)
chain: DKIAALKAENAALEAKIAALEAEIAALEG
interaction score [33]: -1.51 | interaction score [34]: -1.31 | interaction score [35]: -1.05 | interaction score [36]: 0.0667 | interaction score [37]: -1.38 | interaction score [38]: -0.835 | interaction score [39]: 0.879 | interaction score [40]: 1.73 | interaction score [41]: 1.59 | interaction score [42]: -1.62 | interaction score [43]: -0.696 | interaction score [44]: -2.01 | interaction score [45]: -1.55 | interaction score [46]: -0.56 | interaction score [47]: 0.408 | interaction score [48]: 0.892 | interaction score [49]: 2.11 | interaction score [50]: -1.58

B4: 4H2576-bA (peptide)
chain: DKIAQLKQEIAELEQEIAELKWKNAQLKQ
interaction score [7]: -0.232 | interaction score [51]: -0.614 | interaction score [8]: -0.69 | interaction score [9]: 0.265 | interaction score [10]: 1.26 | interaction score [11]: 0.345 | interaction score [12]: 0.283 | interaction score [13]: 1.22 | interaction score [14]: -0.213 | interaction score [15]: 0.89 | interaction score [16]: -0.0165 | interaction score [52]: -1.39 | interaction score [17]: 0.28 | interaction score [18]: 0.611 | interaction score [53]: 0.599 | interaction score [54]: 1.32 | interaction score [19]: 0.662 | interaction score [20]: 1.64 | interaction score [21]: -0.646 | interaction score [22]: -0.678 | interaction score [23]: -0.652 | interaction score [24]: -1.6 | interaction score [25]: -0.381 | interaction score [26]: -0.459 | interaction score [55]: 1.66 | interaction score [56]: 2.1 | interaction score [57]: -0.116 | interaction score [27]: 1.25 | interaction score [28]: 0.525 | interaction score [29]: 0.163 | interaction score [30]: 1.49 | interaction score [31]: 1.77 | interaction score [58]: 1.74 | interaction score [32]: -1.01 | interaction score [59]: 0.547 | interaction score [60]: 0.799

Second part, the binder after the results:

interaction score [1]: -1.25 | interaction score [2]: -0.955 | interaction score [3]: -0.899 | interaction score [4]: -0.883 | interaction score [5]: -2.07 | interaction score [6]: -1.23
B1: P4A-bA (peptide)
chain: DKIAQLKQKIAELKQENAELEWENAQLEQ

interaction score [7]: -0.965 | interaction score [8]: 1.21 | interaction score [9]: -0.804 | interaction score [10]: 0.866 | interaction score [11]: -0.735 | interaction score [12]: -1.3 | interaction score [13]: 1.35 | interaction score [14]: -1.07 | interaction score [15]: 0.0194 | interaction score [16]: 0.484 | interaction score [17]: 1.02 | interaction score [18]: 0.854 | interaction score [19]: 0.137 | interaction score [20]: 0.72 | interaction score [21]: 1.61 | interaction score [22]: 0.769 | interaction score [23]: -2.6 | interaction score [24]: 0.858 | interaction score [25]: 0.0328 | interaction score [26]: -0.396 | interaction score [27]: -0.631 | interaction score [28]: -0.835 | interaction score [29]: -0.916 | interaction score [30]: 0.102 | interaction score [31]: 0.142 | interaction score [32]: -1.08
B2: 4H2618-bA (peptide)
chain: DKIAQLKQEIAELEQKNAELKWEIAQLKQ
